Measurements from the supplement of paper PMC10567573.

B1: EPB41L3 (parent)
chain: SDYISEFRFAPNHTKELEDKVIEL

Variants of: B1
Assay: protein stability index of a GFP-peptide fusion (GPS, HEK-293T) (PSI 1-6); higher = more stable
Details: c terminus: a fixed tail appended
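Note: lentivirally expressed fusions sorted by FACS into six bins by GFP to DsRed ratio, PSI derived from sequencing read proportions per bin multiplied by bin number.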

Row | Variant | protein stability index
1 | SDYISEFRFPPNHTKELEDKVIEL | 3.96
2 | SDYISEFRFVPNHTKELEDKVIEL | 1.84
3 | SDYISEFRFQPNHTKELEDKVIEL | 2.35
4 | SDYISEFRFRPNHTKELEDKVIEL | 3.54
5 | SDYISEFRFTPNHTKELEDKVIEL | 2.05
6 | SDYISEFRFSPNHTKELEDKVIEL | 2.61
7 | SDYISEFRFWPNHTKELEDKVIEL | 2.96
8 | SDYISEFRFYPNHTKELEDKVIEL | 3.09
9 | SDYISEFRFAPNHTGELEDKVIEL | 2.1
10 | SDYISEFRFAPNHTIELEDKVIEL | 1.9
11 | SDYISEFRFAPNHTCELEDKVIEL | 2.25
12 | SDYISEFRFAPNHTLELEDKVIEL | 1.75
13 | SDYISEFRFAPNHTDELEDKVIEL | 2.49
14 | SDYISEFRFAPNHTHELEDKVIEL | 1.97
15 | SDYISEFRFAPNHTMELEDKVIEL | 2.25
16 | SDYISEFRFAPNHTAELEDKVIEL | 1.9
17 | SDYISEFRFAPNHTEELEDKVIEL | 3.46
18 | SDYISEFRFAPNHTFELEDKVIEL | 2.15
19 | SDYISEFRFAPNHAKELEDKVIEL | 2.16
20 | SDYISEFRFAPNHNKELEDKVIEL | 2.25
21 | SDYISEFRFAPNHVKELEDKVIEL | 2.42
22 | SDYISEFRFAPNHSKELEDKVIEL | 1.76
23 | SDYISEFRFAPNHCKELEDKVIEL | 2.02
24 | SDYISEFRFAPNHGKELEDKVIEL | 1.88

Row | Variant | protein stability index
25 | SDYISEFRFAPNHKKELEDKVIEL | 1.4
26 | SDYISEFRFAPNHMKELEDKVIEL | 2.65
27 | SDYISEFRFAPNHFKELEDKVIEL | 1.97
28 | SDYISEFRFAPNHIKELEDKVIEL | 2.7
29 | SDYISEFRFAPNHYKELEDKVIEL | 2.06
30 | SDYISEFRFAPNHEKELEDKVIEL | 2.74
31 | SDYISEFRFAPNHWKELEDKVIEL | 2.18
32 | SDYISEFRFAPNHDKELEDKVIEL | 2.49
33 | SDYISEFRFAPNHHKELEDKVIEL | 1.68
34 | SDYISEFRFAPNHLKELEDKVIEL | 2.23
35 | SDYISEFRFAPNHRKELEDKVIEL | 2.08
36 | SDYISEFRFAPNHPKELEDKVIEL | 1.37
37 | SDYISEFRFAPNHQKELEDKVIEL | 2.55
38 | SDYISEFRFAPNYTKELEDKVIEL | 2.35
39 | SDYISEFRFAPNVTKELEDKVIEL | 1.59
40 | SDYISEFRFAPNRTKELEDKVIEL | 1.94
41 | SDYISEFRFAPNDTKELEDKVIEL | 3.71
42 | SDYISEFRFAPNPTKELEDKVIEL | 1.99
43 | SDYISEFRFAPNMTKELEDKVIEL | 2.06
44 | SDYISEFRFAPNWTKELEDKVIEL | 1.72
45 | SDYISEFRFAPNATKELEDKVIEL | 2.84
46 | SDYISEFRFAPNSTKELEDKVIEL | 2.06
47 | SDYISEFRFAPNETKELEDKVIEL | 3.3
48 | SDYISEFRFAPNKTKELEDKVIEL | 2.29

Row | Variant | protein stability index
49 | SDYISEFRFAPNTTKELEDKVIEL | 2.08
50 | SDYISEFRFAPNFTKELEDKVIEL | 1.92
51 | SDYISEFRFAPNNTKELEDKVIEL | 2.36
52 | SDYISEFRFAPNGTKELEDKVIEL | 2.16
53 | SDYISEFRFAPNITKELEDKVIEL | 2.28
54 | SDYISEFRFAPNQTKELEDKVIEL | 2.46
55 | SDYISEFRFAPNLTKELEDKVIEL | 2.31
56 | SDYISEFRFAPNCTKELEDKVIEL | 2.19
57 | SDYISEFRFAPRHTKELEDKVIEL | 1.43
58 | SDYISEFRFAPTHTKELEDKVIEL | 2.2
59 | SDYISEFRFAPAHTKELEDKVIEL | 2.2
60 | SDYISEFRFAPVHTKELEDKVIEL | 2.23
61 | SDYISEFRFAPMHTKELEDKVIEL | 1.89
62 | SDYISEFRFAPYHTKELEDKVIEL | 2.1
63 | SDYISEFRFAPIHTKELEDKVIEL | 1.82
64 | SDYISEFRFAPCHTKELEDKVIEL | 1.47
65 | SDYISEFRFAPGHTKELEDKVIEL | 1.83
66 | SDYISEFRFAPLHTKELEDKVIEL | 2.2
67 | SDYISEFRFAPFHTKELEDKVIEL | 1.9
68 | SDYISEFRFAPSHTKELEDKVIEL | 2.21
69 | SDYISEFRFAPQHTKELEDKVIEL | 2.35
70 | SDYISEFRFAPWHTKELEDKVIEL | 1.5
71 | SDYISEFRFAPEHTKELEDKVIEL | 3.54
72 | SDYISEFRFAPPHTKELEDKVIEL | 2.19

Row | Variant | protein stability index
73 | SDYISEFRFAPKHTKELEDKVIEL | 2.18
74 | SDYISEFRFAPDHTKELEDKVIEL | 3.9
75 | SDYISEFRFAPHHTKELEDKVIEL | 1.95
76 | SDYISEFRFAQNHTKELEDKVIEL | 2.57
77 | SDYISEFRFASNHTKELEDKVIEL | 2.26
78 | SDYISEFRFAGNHTKELEDKVIEL | 2.44
79 | SDYISEFRFAANHTKELEDKVIEL | 2.68
80 | SDYISEFRFANNHTKELEDKVIEL | 2.26
81 | SDYISEFRFAENHTKELEDKVIEL | 4.36
82 | SDYISEFRFARNHTKELEDKVIEL | 2.64
83 | SDYISEFRFAHNHTKELEDKVIEL | 1.88
84 | SDYISEFRFAKNHTKELEDKVIEL | 2.3
85 | SDYISEFRFAYNHTKELEDKVIEL | 1.8
86 | SDYISEFRFAMNHTKELEDKVIEL | 2.65
87 | SDYISEFRFATNHTKELEDKVIEL | 2.82
88 | SDYISEFRFAWNHTKELEDKVIEL | 2.33
89 | SDYISEFRFADNHTKELEDKVIEL | 4.29
90 | SDYISEFRFACNHTKELEDKVIEL | 2.12
91 | SDYISEFRFAVNHTKELEDKVIEL | 2.23
92 | SDYISEFRFAINHTKELEDKVIEL | 2.49
93 | SDYISEFRFAFNHTKELEDKVIEL | 2.16
94 | SDYISEFRFALNHTKELEDKVIEL | 2.11
